This note sets out measurements from the supplement of paper PMC9170038.

The test system of the data set is MS2 coat protein. In words: apparent KD of MS2 coat protein; designed switch direction (-1 OFF switch, 1 ON switch): -1; higher = weaker reporter binding. The gist of the method: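 Each step of the titration lasted 0.8–1.5 h at the lowest concentration and 10–20 min at the highest. The protein, SNAP-549-labelled MS2 coat protein, went from 0.7 or 1.5 nM doubling to 3 µM over RNA switches transcribed on Illumina chips by stalled E. coli RNA polymerase. Normalised cluster fluorescence was curve-fitted, and the per-design median over clusters is given as apparent KD.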

Setting [1] is: input ligand: microRNA oligo, concentration not stated.
Setting [2] is: Eterna round: R95, input ligand: microRNA oligo, concentration not stated.

As to “GUAAUAGUGGUUAGGAUAUGCGAUCGAAAAUAGGUGCAGAAGGAACAUGAGGAUCACCCAUGUGCCUCCUCAAU [Eternabot (L1) Solution 6] (Eterna round: R97, puzzle: Brourd's mod of Exclusion 4)”, the “apparent KD of MS2 coat protein” value was determined as 0.0242 µM (input ligand: FMN 200 uM) and 0.0156 µM (input ligand: none).

As to “GUAAUUAAUGUAGGAUAUGCAAGGCGAACCUAAGCAGAAGGACAUGAGGAUCACCCAUGUAUUGCGGUCUGCGUUCUGAUCGCU [salish99_ExNG1_r4_010] (Eterna round: R96, puzzle: Exclusion NG 1)”, the “apparent KD of MS2 coat protein” value reads like this: (input ligand: FMN 200 uM) 0.0191 µM; under setting [1], 0.00825 µM; (input ligand: none) 0.017 µM.

“GUACUCGGAUGACAGUCCGACAUGAGGAUCACCCAUGUUUCAUUAAGGUCGUUGCUCGUCAAACAUCACUCAACCAG [Eternabot (L1) Solution 35] (Eterna round: R97, puzzle: Sensor, turn-off variant 1)”: the “apparent KD of MS2 coat protein” value reads like this: (input ligand: FMN 200 uM) 0.0432 µM; (input ligand: none) 0.0515 µM.

“GUACUGAAGCAUAGCUUUAGUCGUACAUGAGGAUCACCCAUGUAGGAUAUGGUAGGCAUAGCUUACUAGAAGGAUAGAGUGAUC [Mat - Exclusion NG 3 - Mod of JL - D72] (Eterna round: R96, puzzle: Exclusion NG 3)”: the “apparent KD of MS2 coat protein” value worked out at 0.44 µM (input ligand: FMN 200 uM), 0.0716 µM under setting [1] and 0.137 µM (input ligand: none).

On to “GUACUGAAGCUUUGCUUUAAUCGUACAUGAGGAUCACCCAUGUAGGAUAUGGUAGGCUUUGCUUACCAGAAGGACAGAGUGAUC [JL EXNG3 1.24] (Eterna round: R96, puzzle: Exclusion NG 3)”, for which the “apparent KD of MS2 coat protein” value stood at 0.217 µM (input ligand: FMN 200 uM), 0.124 µM under setting [1] and 0.136 µM (input ligand: none).

Regarding “GUACUGACAGGAUAUACAUGAGGAUCACCCAUGUGCCCUUAUAGAUGCAAAGCAUCUAGUAGAAGGGUCUGUAC [Omei Ex3 Model Bachelor's Dilema v24] (Eterna round: R97, puzzle: Exclusion 3)”, the “apparent KD of MS2 coat protein” value (input ligand: FMN 200 uM) amounted to 0.0328 µM and the “apparent KD of MS2 coat protein” value (input ligand: none) was 0.0269 µM.

Take “GUAGAGACAGGAUAUACAUGAGGAUCACCCAUGUGAGGAGGAAAAGAGAGGAGAAAGAGUAGAAGGGUCGAAAG [JR_Exclu3_Sub030] (puzzle: Exclusion 3)”: the “apparent KD of MS2 coat protein” value runs as follows: (Eterna round: R95, input ligand: FMN 200 uM) 0.0414 µM; under setting [2], 0.0357 µM; (Eterna round: R95, input ligand: none) 0.043 µM.

In the case of “GUAGAGUCAGGAUAUACAAGAUCGAAAGAUCAAAGGUCCAUACAUGAGGAUCACCCAUGUAGAAGGGACUCUAC [Eli x2 4.09] (Eterna round: R97, puzzle: Exclusion 2)”, the “apparent KD of MS2 coat protein” value by setting is: (input ligand: FMN 200 uM) 0.0364 µM; (input ligand: none) 0.0245 µM.

Consider “GUAGAGUCAGGAUAUACGAGAUCGAAAGAUCGGCGAUCCAAACAUGAGGAUCACCCAUGUAGAAGGGACUCUAC [Eli x2 4.004] (Eterna round: R97, puzzle: Exclusion 2)”, for which the “apparent KD of MS2 coat protein” value is, setting by setting: (input ligand: FMN 200 uM) 0.579 µM; (input ligand: none) 0.041 µM.

Regarding “GUAGAGUCAGGAUAUACGAGAUCGAAAGAUCGGCGGUCUGUACAUGAGGAUCACCCAUGUAGAAGGGACUCUAC [ChP 11-04-2015 #6] (puzzle: Exclusion 2)”, under setting [2], the “apparent KD of MS2 coat protein” value turned out to be 0.0153 µM.

In the case of “GUAGAGUCAGGAUAUACGCGAUCGAAAGAUCGGUGGUCCUUACAUGAGGAUCACCCAUGUAGAAGGGACUCUAC [Omei mod 13 to Eli's favorate candidate (ch.parushev)] (Eterna round: R97, puzzle: Exclusion 2)”, the “apparent KD of MS2 coat protein” value was found to be 0.0659 µM (input ligand: FMN 200 uM) and 0.58 µM (input ligand: none).

Turning to “GUAGAGUGAGGAUAUACAAGAUCGAUAGAUCGGCGAUCCAUACAUGAGGAUCACCCAUGUAGAAGGCACUCUAC [Mat - Exclusion 2 - Eli Mod - D7] (Eterna round: R97, puzzle: Exclusion 2)”, the “apparent KD of MS2 coat protein” value was 0.218 µM (input ligand: FMN 200 uM) and 0.0835 µM (input ligand: none).
